From patent US20260069689A1 (Regeneron, published 2026) come the findings set out here.

Where a chain is given by its changes, count along the chain named.

What is called koff is the first-order rate constant of dissociation. Low readings indicate slow dissociation, high ones fast dissociation. What is called t½ is the time in which the quantity being followed falls by half. A higher t½ goes with slow decline. As usually defined, the Kd is the free concentration of one partner at which half of the binding sites on the other are occupied at equilibrium, for simple one-to-one binding. Read a high Kd as weaker binding. A word on the kon: it is a measure of how fast the partners come together.

First the molecules themselves.
B1: mAb14233 (antibody)
heavy: not shown
light: SYELTQPPSVSVSPGQTARITCSGDVLAKLYAYWYQHKPGQAPVLVIYKDSERPSGIPERFSGSSSGTTVTLTISGVQAEDEADYYCQSADSSGSLWVFGGGTKLTVLGQPKAAPSVTLFPPSSEELQANKATLVCLISDFYPGAVTVAWKADSSPVKAGVETTTPSKQSNNKYAASSYLSLTPEQWKSHRSYSCQVTHEGSTVEKTVAPTECS
B2: mAb14288 (antibody)
heavy: not shown
light: QSVLTQPPSVSAAPGQKVTISCSGSSSNIGNNYVSWYQQLPGTAPKLLIYENNKRPSGIPDRFSGSKSGTSATLGITGLQTGDEADYYCGTWDSSLSAGQGVFGGGTKLTVLGQPKAAPSVTLFPPSSEELQANKATLVCLISDFYPGAVTVAWKADSSPVKAGVETTTPSKQSNNKYAASSYLSLTPEQWKSHRSYSCQVTHEGSTVEKTVAPTECS
B3: mAb14287 (antibody)
heavy: not shown
light: QSALTQPASVSGSPGQSITISCTGTSSDVGSYNLVSWYQQHPGKAPKLMIYEVSKRPSGVSNRFSGSKSGNTASLTISGLQAEDEADYYCSSYAGSRREVFGGGTKLTVLGQPKAAPSVTLFPPSSEELQANKATLVCLISDFYPGAVTVAWKADSSPVKAGVETTTPSKQSNNKYAASSYLSLTPEQWKSHRSYSCQVTHEGSTVEKTVAPTECS
B4: mAb14259 (antibody)
heavy: not shown
light: DIVMTQSPLSLPVTPGEPASISCRSSQTLLHSNGYNYLDWYLQKPGQSPQLLIHLGSNRASGVPDRFSGSGSVTDFTLKISRVEAEDVGVYYCMQALQTPYTFGQGTKLEIKRTVAAPSVFIFPPSDEQLKSGTASVVCLLNNFYPREAKVQWKVDNALQSGNSQESVTEQDSKDSTYSLSSTLTLSKADYEKHKVYACEVTHQGLSSPVTKSFNRGEC
B5: mAb14291 (antibody)
heavy: not shown
light: B4 light with T28S, L38I, D39N, I53M, H54Y, V73G, F76S, V88A, A96T, L97R
B6: mAb14295 (antibody)
heavy: not shown
light: DIQMTQSPSSLSASVGDRVTITCRASQSINTYLNWYQQKPGKAPNLLIDGASSLQSGVPSRFSGSGSGTDFILTISSLRPEDFATYYCQQSYSIPLTFGGGTRVEIKRTVAAPSVFIFPPSDEQLKSGTASVVCLLNNFYPREAKVQWKVDNALQSGNSQESVTEQDSKDSTYSLSSTLTLSKADYEKHKVYACEVTHQGLSSPVTKSFNRGEC
B7: mAb14232 (antibody)
heavy: not shown
light: QSALTQPPSASGSPGQSVTISCTATSSDVGNYNYVSWYQQHPGKAPKLMIYEVTKRPSGVPDRFSGSKSGNTASLTVSGLQAEDEADYYCSSYAGSWGVFGGGTKLTVLGQPKAAPSVTLFPPSSEELQANKATLVCLISDFYPGAVTVAWKADSSPVKAGVETTTPSKQSNNKYAASSYLSLTPEQWKSHRSYSCQVTHEGSTVEKTVAPTECS
B8: mAb14290 (antibody)
heavy: not shown
light: EIVLTQSPGTLSLSPGERATLSCRASQSVNNNYLAWYQQKPGQTPRLLIYGASSRATGIPDRFSGSGSGTDFTLTITRLEPEDFAVYHCQQYGRSPTTFGQGTRLEIKRTVAAPSVFIFPPSDEQLKSGTASVVCLLNNFYPREAKVQWKVDNALQSGNSQESVTEQDSKDSTYSLSSTLTLSKADYEKHKVYACEVTHQGLSSPVTKSFNRGEC
B9: mAb14314 (antibody)
heavy: not shown
light: QSVLTQPPSVSAAPGQKVTISCSGSISNIGNNYVSWYQQLPGTAPKLLIYDNDKRPSGIPDRFSGSRSGTSATLGITGLQTGDEADYYCGTWDSSLTAYVFGTGTKVTVLGQPKAAPSVTLFPPSSEELQANKATLVCLISDFYPGAVTVAWKADSSPVKAGVETTTPSKQSNNKYAASSYLSLTPEQWKSHRSYSCQVTHEGSTVEKTVAPTECS
B10: mAb14315 (antibody, V domains shown)
VH: QVQLVQSGAEVKKPGSSVKVSCKASGDTFSTYAINWVRQAPGQGLEWMGRFIHIFGTANYAQKFQGRVTITADESTSTAYMELRSLRSEDTAVYYCARDGVDYGDYRPDYWGQGTLVTVSS
VL: EIVLTQSPGTLSLSPGERATLSCRASQSVSSNYLAWYQQKPGQAPRLLIYGASSRATGIPERFSGSGSGTDFTLTISRLEPEDFAVYYCQQYGSSLYTFGQGTKLEIKR
B11: mAb14289 (antibody, V domains shown)
VH: QVQLVQSGPEVKKPGASVKVSCKASGYTFTSYAISWVRQAPGQGLEWMGWISAYNGNTNYAQKLQGRVTMTTDTFTSTAYMELRSLRSDDTAVYYCAVPADHITFDYWGQGTLVTVSS
VL: EIVLTQSPGTLSLSPGERATLSCRASQSVSSYLAWYQQKPGQAPRLLIHGASSRATGIPDRFSGSGSGTDFTLTISRLEPEDFAVYYCQQYGSSFLTFGGGTKVEIKR
B12: mAb14247 (antibody, V domains shown)
VH: QITLKESGPTLVKPTQTLTLTCTFSGFSLSTSAVGVGWIRQPPGKALEWLALIYWDDDKRYSPSLKSRLTITKDTSKNQLVLTMTNVDPVDTATYYCAHHTIQLIFDYWGQGTLVTVSS
VL: QSALTQPASVSGSPGQSITISCTATSSDVGNYNYVSWYQQHPGKAPKLMIYEVSNRPSGVSNRFSGSKSGNTASLTISGLQAEDEADYYCSSYTSSSTPLVFGGGTKLTVLG
B13: mAb14257 (antibody, V domains shown)
VH: EVQLVESGGGLVQPGGSLRLSCAASGFTVSRSYMNWVRQAPGKGLEWVSVVFTGGTTKHTDSVKGRFTISRDNSMNTLYLQMNSLRPEDTAVYYCARVAIVETTGAFDIWGQGTMVTVSS
VL: QSVLTQPPSVSGAPGQRVTISCTGTSSNIGADFDVHWYQQFPGTAPKLLIYGHTNRPSGIPDRFSGSKSGTSASLAITGLQAEDEADYYCQSYDSSLSGSVVFGGGTKLTVLG
B14: mAb13458 (antibody, V domains shown)
VH: EVQLVESGGGLVQPGRSLRLSCAASGFTFDDYAMHWVRQAPGKGLEWVSGISWNSGSIGYADSVKGRFTISRDNAKNSLYLQMNSLRAEDTALYYCAKDIGITTPYWGQGTLVTVSS
VL: AIQMTQSPSSLSASVGDRVTITCRASQDIRNDLGWYQQKPGKAPKLLIYSASSLQTGVPSRFSGSGSGTDFTLTISSLHPEDFATYYCLQDYWYTWTFGQGTKVEIKR
B15: mAb13459 (antibody, V domains shown)
VH: B14 VH
VL: B14 VL with W93N, T95V
B16: mAb14255 (antibody, V domains shown)
VH: QVQLQESGPGLVKPSETLSLTCTVSGGSISGYYWSWIRQPPGKGLDWIGYIYYRGNTNYNPSLKSRVTISVDTSNNQFSLKLSSVTAADTAVYYCARYGEGYGDASGYHFDYWGQGTLVTVSS
VL: QSALTQPASVSGSPGQSITISCTGTSSDVGSYNLVSWYQQHPGKAPKLMIYEDSKRPSGVANPFSGSKSGNTASLTISGLQAEDEADYYCSSYAGSSTWVFGGGTKLTVLG
B17: mAb14313 (antibody, V domains shown)
VH: EVQLVESGGGLVQPGRSLRLSCVASGFTFDDSAMHWVRQPPGKGLEWVSGISWNSGIIGYAESVKGRFIISRDNAKNSLFLHMRGLRPEDTAVYYCARDRLELSYYYYGMDVWGQGTTVTVSS
VL: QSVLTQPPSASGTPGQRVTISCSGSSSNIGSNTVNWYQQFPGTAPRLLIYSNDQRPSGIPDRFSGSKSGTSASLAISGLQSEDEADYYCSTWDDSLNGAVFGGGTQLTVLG

The target in the first assay is human FcγR3a 176Val allotype receptor (human, UniProt P08637 17-254). The assay can be described thus: cell-based or functional assay.
On to B1, for which the “EC50 (M), Jurkat/CD20/spike” value turned out to be 2.8e-10 M; the “Fold induction, Jurkat CD20” value worked out at 1.1 fold; the “Fold induction, Jurkat/CD20/spike” value worked out at 11 fold.

As for B2, the “EC50 (M), Jurkat/CD20/spike” value was determined as 5.1e-10 M; the “Fold induction, Jurkat CD20” value worked out at 1 fold; the “Fold induction, Jurkat/CD20/spike” value is 6.7 fold.

With B3, the “EC50 (M), Jurkat/CD20/spike” value worked out at 1.23e-09 M; the “Fold induction, Jurkat CD20” value was 1 fold; the “Fold induction, Jurkat/CD20/spike” value was 6.2 fold.

Take B4: the “EC50 (M), Jurkat/CD20/spike” value was determined as 3.94e-10 M; the “Fold induction, Jurkat CD20” value was found to be 1 fold; the “Fold induction, Jurkat/CD20/spike” value amounted to 8.7 fold.

With B5, the “EC50 (M), Jurkat/CD20/spike” value was 3.02e-10 M; the “Fold induction, Jurkat CD20” value came out at 1.1 fold; the “Fold induction, Jurkat/CD20/spike” value was 9.7 fold.

As to B6, the “EC50 (M), Jurkat/CD20/spike” value was 1.93e-10 M; the “Fold induction, Jurkat CD20” value was determined as 1 fold; the “Fold induction, Jurkat/CD20/spike” value worked out at 11.5 fold.

In the case of B7, the “EC50 (M), Jurkat/CD20/spike” value amounted to 1.31e-10 M; the “Fold induction, Jurkat CD20” value was 1.2 fold; the “Fold induction, Jurkat/CD20/spike” value came out at 10.8 fold.

In the case of B8, the “EC50 (M), Jurkat/CD20/spike” value is 3.42e-09 M; the “Fold induction, Jurkat CD20” value came out at 1 fold; the “Fold induction, Jurkat/CD20/spike” value amounted to 9.5 fold.

For the molecule B9, the “Fold induction, Jurkat CD20” value was found to be 1.1 fold and the “Fold induction, Jurkat/CD20/spike” value came out at 3.9 fold.

For the next assay, the target named is SARS-COV-2 RBD-MMH (SARS-CoV-2). The assay can be described thus: SPR 37C, run with dissociation at pH 5.0.
Turning to B7, the “RBD.mmh Bound at pH 7.4 (RU)” value was 10.1 RU, the koff was determined as 0.000656 s⁻¹ and the t½ came out at 17.6 min.

The next assay has the same target. In words: SPR 37C, run with dissociation at pH 7.4.
On to B7, for which the “RBD.mmh Bound at pH 7.4 (RU)” value is 8.2 RU and the koff was found to be 0.0311 s⁻¹.

The target in a further assay is SARS-COV-2 RBD extracellular domain expressed with a C-terminal myc-myc-hexahistidine tag (SARS-CoV-2). The assay can be described thus: SPR (Biacore), mAb captured by anti-human Fc, RBD-mmH in solution, 25 C.
Molecule B10 displayed a Kd of 2.49 nM, a koff of 0.00102 s⁻¹, a kon of 407000 M⁻¹ s⁻¹ and a t½ of 11.4 min.

Take B11: the dissociation constant Kd came to 1.36 nM, the koff worked out at 0.00158 s⁻¹, the kon was 1.16e+06 M⁻¹ s⁻¹ and the t½ amounted to 7.3 min.

As for B12, the affinity, expressed as Kd, was 1.94 nM; the off-rate (koff) is 0.00163 s⁻¹; the kon was found to be 838000 M⁻¹ s⁻¹; the t½ amounted to 7.1 min.

Take B13: the Kd was 2.8 nM, the koff is 0.00952 s⁻¹, the kon was 3.4e+06 M⁻¹ s⁻¹ and the t½ is 1.2 min.

Take B14: the Kd turned out to be 1.53 nM, the koff was 0.00139 s⁻¹, the kon stood at 909000 M⁻¹ s⁻¹ and the t½ came out at 8.3 min.

In the case of B15, the affinity, expressed as Kd, was 2.51 nM; the koff turned out to be 0.00174 s⁻¹; the kon was found to be 693000 M⁻¹ s⁻¹; the t½ stood at 6.6 min.

Molecule B16 had a Kd of 2.84 nM, a koff of 0.00499 s⁻¹, a kon of 1.75e+06 M⁻¹ s⁻¹ and a t½ of 2.3 min.

Consider B17, for which the Kd stood at 1.53 nM, the koff amounted to 0.00217 s⁻¹, the kon was 1.42e+06 M⁻¹ s⁻¹ and the t½ was 5.3 min.
